# In US20130130273A1 (KOREA BASIC SCIENCE INSTITUTE, published 2013):
# Molecular target: TMD-mRFP-RelA (UniProt Q04206 1-551)
# Test: co-translocation of a three-protein complex (RelA, IkB, p50) after 1 µM PMA, confocal microscopy, HEK293 cells
# Sequence of TMD-mRFP-RelA (Q04206 other isoform, or with tags, fused parts or gaps limits assumed): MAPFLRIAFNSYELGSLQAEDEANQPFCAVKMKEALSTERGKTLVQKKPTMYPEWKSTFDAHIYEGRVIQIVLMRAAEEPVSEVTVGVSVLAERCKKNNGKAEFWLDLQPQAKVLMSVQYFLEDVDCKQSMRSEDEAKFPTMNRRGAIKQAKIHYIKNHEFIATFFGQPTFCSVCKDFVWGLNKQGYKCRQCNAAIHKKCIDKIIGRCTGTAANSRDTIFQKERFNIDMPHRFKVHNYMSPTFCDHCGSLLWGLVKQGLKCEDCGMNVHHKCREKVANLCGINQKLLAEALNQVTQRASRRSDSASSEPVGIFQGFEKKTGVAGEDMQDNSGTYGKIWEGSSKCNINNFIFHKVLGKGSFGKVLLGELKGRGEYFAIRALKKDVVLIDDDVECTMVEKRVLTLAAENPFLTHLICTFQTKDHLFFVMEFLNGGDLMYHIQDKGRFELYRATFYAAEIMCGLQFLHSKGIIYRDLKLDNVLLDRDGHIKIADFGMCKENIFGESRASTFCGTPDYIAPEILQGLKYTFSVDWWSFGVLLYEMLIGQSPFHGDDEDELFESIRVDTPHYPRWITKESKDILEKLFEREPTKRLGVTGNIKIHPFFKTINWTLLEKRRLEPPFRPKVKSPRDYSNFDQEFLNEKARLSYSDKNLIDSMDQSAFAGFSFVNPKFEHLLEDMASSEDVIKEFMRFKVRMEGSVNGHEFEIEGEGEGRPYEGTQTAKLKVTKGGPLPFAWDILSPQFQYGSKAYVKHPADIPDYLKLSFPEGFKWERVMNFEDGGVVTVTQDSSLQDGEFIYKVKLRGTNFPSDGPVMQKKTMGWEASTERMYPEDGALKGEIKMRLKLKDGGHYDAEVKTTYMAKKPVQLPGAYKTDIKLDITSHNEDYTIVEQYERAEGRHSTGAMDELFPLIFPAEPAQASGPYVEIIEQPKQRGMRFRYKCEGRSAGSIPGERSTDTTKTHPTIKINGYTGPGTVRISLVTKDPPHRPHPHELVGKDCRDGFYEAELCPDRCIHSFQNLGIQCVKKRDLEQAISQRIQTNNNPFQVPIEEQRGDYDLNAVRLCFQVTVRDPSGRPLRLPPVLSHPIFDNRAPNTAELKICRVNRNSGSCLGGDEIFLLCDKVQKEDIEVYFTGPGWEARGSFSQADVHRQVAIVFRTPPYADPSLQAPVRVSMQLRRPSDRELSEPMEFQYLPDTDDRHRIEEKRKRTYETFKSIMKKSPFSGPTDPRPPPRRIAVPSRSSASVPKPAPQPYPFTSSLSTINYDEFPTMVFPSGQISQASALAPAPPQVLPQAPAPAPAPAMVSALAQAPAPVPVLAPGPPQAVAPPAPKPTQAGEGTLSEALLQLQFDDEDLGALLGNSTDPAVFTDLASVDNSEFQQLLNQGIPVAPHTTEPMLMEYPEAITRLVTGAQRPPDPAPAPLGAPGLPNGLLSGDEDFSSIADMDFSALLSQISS
binder,measurement,value
"HcR-p50 (other, also called second construct 2) MVSGLLKESMRIKMYMEGTVNGHYFKCEGEGDGNPFAGTQSMRIHVTEGAPLPFAFDILAPCCEYGSRTFVHHTAEIPDFFKQSFPEGFTWERTTTYEDGGILTAHQDTSLEGNCLIYKVKVHGTNFPADGPVMKNKSGGWEPSTEVVYPENGVLCGRNVMALKVGDRHLICHHYTSYRSKKAVRALTMPGFHFTDIRLQMLRKKKDEYFELYEASVARYSDLPEKANMAEDDPYLGRPEQMFHLDPSLTHTIFNPEVFQPQMALPTDGPYLQILEQPKQRGFRFRYVCEGPSHGGLPGASSEKNKKSYPQVKICNYVGPAKVIVQLVTNGKNIHLHAHSLVGKHCEDGICTVTAGPKDMVVGFANLGILHVTKKKVFETLEARMTEACIRGYNPGLLVHPDLAYLQAEGGGDRQLGDREKELIRQAALQQTKEMDLSVVRLMFTAFLPDSTGSFTRRLEPVVSDAIYDSKAPNASNLKIVRMDRTAGCVTGGEEIYLLCDKVQKDDIQIRFYEEEENGGVWEGFGDFSPTDVHRQFAIVFKTPKYKDINITKPASVFVQLRRKSDLETSEPKPFLYYPEIKDKEEVQRKRQKLMPNFSDSFGGGSGAGAGGGGMFGSGGGGGGTGSTGPGYSFPHYGFPTYGGITFHPGTTKSNAGMKHG",binding result,binds
